# Where a chain is given by its changes, count along the chain named. Names may count otherwise. “And” between values parts separate entries of the source, which are not always exact repeats. Equal values may be shown once.
# T1: human CD73 on cells (human, UniProt P21589 27-549)
# T1 sequence: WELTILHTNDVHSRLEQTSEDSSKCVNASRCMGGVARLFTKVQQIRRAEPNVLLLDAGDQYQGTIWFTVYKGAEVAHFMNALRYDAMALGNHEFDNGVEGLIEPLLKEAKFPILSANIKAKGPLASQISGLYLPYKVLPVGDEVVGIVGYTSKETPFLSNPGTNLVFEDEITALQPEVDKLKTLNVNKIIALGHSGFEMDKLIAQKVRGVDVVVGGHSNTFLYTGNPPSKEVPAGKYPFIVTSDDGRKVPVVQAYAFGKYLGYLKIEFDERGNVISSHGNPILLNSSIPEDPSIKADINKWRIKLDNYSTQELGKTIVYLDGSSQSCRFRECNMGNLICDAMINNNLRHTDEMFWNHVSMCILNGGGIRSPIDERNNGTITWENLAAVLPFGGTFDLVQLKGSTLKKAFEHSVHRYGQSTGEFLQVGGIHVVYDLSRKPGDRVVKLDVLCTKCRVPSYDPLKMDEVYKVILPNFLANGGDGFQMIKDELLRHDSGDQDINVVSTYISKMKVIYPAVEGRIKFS
# T2: N-hCD73-his (N-terminal domain of human CD73, residues 26-336, His tag) (human, UniProt P21589 26-336)
# T2 sequence: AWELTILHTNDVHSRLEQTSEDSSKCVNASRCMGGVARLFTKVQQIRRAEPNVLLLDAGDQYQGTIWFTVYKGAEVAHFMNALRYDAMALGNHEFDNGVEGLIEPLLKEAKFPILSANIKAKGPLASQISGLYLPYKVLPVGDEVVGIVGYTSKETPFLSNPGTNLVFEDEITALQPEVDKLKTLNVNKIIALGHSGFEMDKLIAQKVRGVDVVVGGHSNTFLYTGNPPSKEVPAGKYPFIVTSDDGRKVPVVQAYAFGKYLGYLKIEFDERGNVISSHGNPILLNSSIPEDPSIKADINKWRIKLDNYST
# T3: rhCD73 bound to his-tag magnet beads (human, UniProt P21589 27-547, limits assumed)
# T3 sequence: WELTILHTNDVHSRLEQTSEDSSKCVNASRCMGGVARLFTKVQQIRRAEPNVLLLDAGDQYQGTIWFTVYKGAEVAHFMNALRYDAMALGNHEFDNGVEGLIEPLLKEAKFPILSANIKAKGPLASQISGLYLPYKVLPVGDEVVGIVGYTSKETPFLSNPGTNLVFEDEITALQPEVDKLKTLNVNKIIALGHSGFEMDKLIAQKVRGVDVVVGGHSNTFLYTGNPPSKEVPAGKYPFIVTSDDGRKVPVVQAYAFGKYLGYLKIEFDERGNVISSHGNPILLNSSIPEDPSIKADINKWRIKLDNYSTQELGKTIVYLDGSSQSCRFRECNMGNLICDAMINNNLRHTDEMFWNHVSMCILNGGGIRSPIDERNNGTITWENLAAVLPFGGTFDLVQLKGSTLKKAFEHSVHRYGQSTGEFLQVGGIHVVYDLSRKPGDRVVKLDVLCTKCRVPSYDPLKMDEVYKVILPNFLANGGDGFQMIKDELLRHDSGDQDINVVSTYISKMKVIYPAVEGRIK
# B1: 10D2 (antibody, human IgG4, kappa, V domains shown)
# VH: QVQLVESGGGVVQPGRSLRLSCAASGFTFSNYGLHWVRQAPGKGLEWVAVIRYDGSNKYYADSVKGRFTISRDNSKNTLYLQMSSLRAEDTAVYYCARGGSSWYPDGLDVWGQGTTVTVSS
# VL: DIQMTQSPSSLSASVGDRVTITCRASQGISSWLAWYQQKPEKAPKSLIYAASSLQSGVPSRFSGSGSGTDFTLTISSLQPEDFATYYCQQYNSYPLTFGGGTKVEIKR
# notes: also called 10D2-2
# B2: 7A11 (antibody, human IgG1, kappa, V domains shown)
# VH: EVQLVESGGGLVQTGRSLRLSCAASGFTFDDYAMHWVRQAPGKGLEWVSDISWNSDIIGYADSVKGRFTISRDNAKNSLYLQMNSLRAEDTALYYCAKDIYGSGSSFFDYWGQGILVTVSS
# VL: B1 VL with G28Y, N92H, L96P, G100Q, K103R, V104L
# notes: IgG1za; also called 7A11-1
# B3: 24H2 (antibody, human IgG4, kappa, V domains shown)
# VH: B1 VH with L34M, R52W, S56G, Y80F, S84N, G107A, L108F, V110I, T116M
# VL: B1 VL
# notes: also called 24H2-1
# B4: 4D4 (antibody, human IgG2, kappa)
# heavy: QVQLVESGGGVVQPGRSLRLSCAASGFTFSNYGMHWVRQAPGKGLEWVAVIWYDESNKYYADSVKGRFTISRDNSKNTLFLQMNSLRAEDTAVYYCARGYNSRWYPDAFDIWGQGTMVTVSSASTKGPSVFPLAPCSRSTSESTAALGCLVKDYFPEPVTVSWNSGALTSGVHTFPAVLQSSGLYSLSSVVTVPSSNFGTQTYTCNVDHKPSNTKVDKTVERKCCVECPPCPAPPVAGPSVFLFPPKPKDTLMISRTPEVTCVVVDVSHEDPEVQFNWYVDGVEVHNAKTKPREEQFNSTFRVVSVLTVVHQDWLNGKEYKCKVSNKGLPAPIEKTISKTKGQPREPQVYTLPPSREEMTKNQVSLTCLVKGFYPSDIAVEWESNGQPENNYKTTPPMLDSDGSFFLYSKLTVDKSRWQQGNVFSCSVMHEALHNHYTQKSLSLSPGK
# light: not shown
# notes: IgG2; also called 4D4-1
# B5: 11A6 (antibody, human IgG1, kappa, V domains shown)
# VH: EVQLVESGGNLVQPGRSLRLSCAASGFTFDDYAMHWVRQAPGKGLEWVSGISWNNNDIGYADSVKGRFIISRDNAKNSLYLQMNSLRPEDTALYYCVKGYYVILTGLDYWGQGTPVTVSS
# VL: B1 VL
# notes: IgG1za; also called 11A6-1
# B6: 5F8 (antibody, human IgG1, kappa, V domains shown)
# VH: EVQLVESGGGLVQPGGSLRLSCAASGFTFSSYWMHWVRQAPGKGLVWVSRIISDGSSTGYADSVKGRFTISRDNAKNTLYLQMNSLRAEDTAVYYCAREFSSGWYFDYWGQGTLVTVSS
# VL: AIQLTQSPSSLSASVGDRVTITCRASQGISSALAWYQQKPGKAPKLLIYDASSLESGVPSRFSGSGSGTDFTLTISSLQPEDFATYYCQQFSSYPRTFGQGTKVEIKR
# notes: IgG1za; VK2 also expressed; also called 5F8-1
# B7: CD73.11-IgG2-C219S (antibody)
# heavy: QVQLVESGGGVVQPGRSLRLSCAASGFTFSNYGMHWVRQAPGKGLEWVAVIWYDESNKYYADSVKGRFTISRDNSKNTLFLQMNSLRAEDTAVYYCARGYNSRWYPDAFDIWGQGTMVTVSSASTKGPSVFPLAPCSRSTSESTAALGCLVKDYFPEPVTVSWNSGALTSGVHTFPAVLQSSGLYSLSSVVTVPSSNFGTQTYTCNVDHKPSNTKVDKTVERKSCVECPPCPAPPVAGPSVFLFPPKPKDTLMISRTPEVTCVVVDVSHEDPEVQFNWYVDGVEVHNAKTKPREEQFNSTFRVVSVLTVVHQDWLNGKEYKCKVSNKGLPAPIEKTISKTKGQPREPQVYTLPPSREEMTKNQVSLTCLVKGFYPSDIAVEWESNGQPENNYKTTPPMLDSDGSFFLYSKLTVDKSRWQQGNVFSCSVMHEALHNHYTQKSLSLSPG
# light: not shown
# notes: 4D4 variable regions; also called CD73.11-IgG2CS; mAb-CD73.11-Vh-hHC-IgG2-C219S
# B8: 4C3 (antibody, human IgG1, kappa, V domains shown)
# VH: B5 VH with N10G, N54K, N55S, N56G, D57S, I69T, P88A, P115L
# VL: not shown
# notes: IgG1za; also called 4C3-1
# Biological target: T1, human CD73 on cells
# Assay: cell-based or functional assay
"Ymax, high-content internalization assay (percent of 100 nM 11F11) [%]","EC50 (nM), high-content internalization assay, Calu6, 2 h [nM]",Binder
29,–,B1
50,2.59,B2
51,8.2,B3
104,0.38,B4

# Biological target: T2, N-hCD73-his (N-terminal domain of human …)
# Assay: SPR, mAb captured on protein A
# Protocol: For these experiments, protein A (Pierce) was immobilized to a density of 3000-4000 RU on flow cells 1-4 of a CM5 sensor chip (GE Healthcare) using standard ethyl(dimethylaminopropyl) carbodiimide (EDC)/N-hydroxysuccinimide […] chemistry, with ethanolamine blocking, in a running buffer of 0.01 M HEPES pH 7.4, 0.15 M NaCl, 3 mM EDTA, 0.005% v/v tween 20. […] The running buffer for the kinetic experiments was 10 mM sodium phosphate, 130 mM sodium chloride, 0.05% tween 20, pH 7.1. The surfaces were regenerated after each cycle using two 30 s pulses of 10 mM glycine pH 1.5 at a flow rate of 30 μl/min. Sensogram data was double-referenced and then fitted to a 1:1 Langmuir model using Biacore T100 evaluation software v2.0.4, to determine the association rate constant (ka), the dissociation rate constant (kd), and the equilibrium dissociation constant (KD).
Kd,koff,kon,Binder
140 nM,0.0076 s⁻¹,55000 M⁻¹ s⁻¹,B5
1.6 nM,0.00095 s⁻¹,610000 M⁻¹ s⁻¹,B1
0.43 nM,0.00038 s⁻¹,880000 M⁻¹ s⁻¹,B2
14 nM,0.0032 s⁻¹,230000 M⁻¹ s⁻¹,B3
41 nM,0.006 s⁻¹,150000 M⁻¹ s⁻¹,B6
3.5 nM and 6.5 nM,0.00028 s⁻¹ and 0.00051 s⁻¹,80000 M⁻¹ s⁻¹ and 79000 M⁻¹ s⁻¹,B7
9.4 nM and 6.2 nM,0.00077 s⁻¹ and 0.00049 s⁻¹,82000 M⁻¹ s⁻¹ and 79000 M⁻¹ s⁻¹,B4

# Biological target: T1, human CD73 on cells
# Assay: cell-based or functional assay
# Remark: another data set of the same source
"IC50 (nM), cAMP HTRF assay, Calu-6 with HEK293/A2AR cells [nM]","Ymax, cAMP HTRF assay (percent of 100 nM 11F11 control) [%]",Binder
4.87,84,B5
–,80,B8
0.95,45,B2
13.2,80,B6

# Biological target: T1, human CD73 on cells
# Assay: cell-based or functional assay
# Remark: another data set of the same source
EC50 Calu6 inhibition [nM],EC50 H292 inhibition [nM],EC50 SKMEL24 inhibition [nM],Binder
2.21,–,–,B5
0.95,1.31,3.72,B2
8.1,13.5,110,B6

# Biological target: T2, N-hCD73-his (N-terminal domain of human …)
# Assay: SPR
row,Kd [nM],Binder
1,100 to 200,B8
2,~5,B7
3,~5,B4

# Biological target: T3, rhCD73 bound to his-tag magnet beads
# Assay: cell-based or functional assay
row,"EC50 (nM), inhibition of bead-bound human CD73 enzymatic activity [nM]",Binder
1,3.12,B5
2,6.94,B1
3,2.86,B2
4,4.18,B3
5,5.76,B6
6,5.31,B4

# Biological target: T1, human CD73 on cells
# Assay: binding titration on Calu6 cells, average of 2-6 experiments
row,EC50 [nM],Binder
1,1.93,B5
2,0.35,B2
3,11.7,B6
4,0.82,B4

# Source: patent US20190284293A1 (Bristol-Myers Squibb, published 2019)
